Measurements taken from PMC3636079, “Determinants at the N- and C-termini of Gα12 required for activation of Rho-mediated signaling” (Journal of Molecular Signaling, 2013).

How the values were obtained:
[1] = biological target: T1, GST fusion of amino acids 1-252 of p115RhoGEF (GST-p115-RH) (UniProt Q92888 1-252); assay: pull-down; GST fusion (or GST alone) immobilised on glutathione-sepharose; HEK293 detergent-soluble extract diluted to 0.05% polyoxyethylene-10-lauryl ether in 50 mM HEPES pH 7.5, 1 mM EDTA, 3 mM dithiothreitol, 10 mM MgSO4; about 2 h at 4°C; three washes; immunoblot with anti-Gα12 or anti-myc; band intensities given as pulldown:load ratio; settings: one partner purified
T1 construct: p115RhoGEF, N-terminal 252 amino acids holding the RH domain; subcloned by PCR from a plasmid with an N-terminal myc tag on p115RhoGEF 1-252; also called RGS
T1 sequence (looked up): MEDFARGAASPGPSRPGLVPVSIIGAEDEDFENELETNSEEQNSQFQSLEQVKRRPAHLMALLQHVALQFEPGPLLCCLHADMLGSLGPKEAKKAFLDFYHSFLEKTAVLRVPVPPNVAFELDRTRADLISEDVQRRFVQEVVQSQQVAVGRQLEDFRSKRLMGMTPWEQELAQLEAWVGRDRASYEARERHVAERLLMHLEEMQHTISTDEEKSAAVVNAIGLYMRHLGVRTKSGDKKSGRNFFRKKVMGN

[2] = biological target: T2, GST fusion of amino acids 320-606 of LARG (GST-LARG-RH) (UniProt Q9NZN5 320-606); assay: as above; settings: one partner purified
T2 construct: leukemia-associated RhoGEF (LARG), RGS-homology (RH) domain, amino acids 320-606; plasmid provided by Tohru Kozasa
T2 sequence (looked up): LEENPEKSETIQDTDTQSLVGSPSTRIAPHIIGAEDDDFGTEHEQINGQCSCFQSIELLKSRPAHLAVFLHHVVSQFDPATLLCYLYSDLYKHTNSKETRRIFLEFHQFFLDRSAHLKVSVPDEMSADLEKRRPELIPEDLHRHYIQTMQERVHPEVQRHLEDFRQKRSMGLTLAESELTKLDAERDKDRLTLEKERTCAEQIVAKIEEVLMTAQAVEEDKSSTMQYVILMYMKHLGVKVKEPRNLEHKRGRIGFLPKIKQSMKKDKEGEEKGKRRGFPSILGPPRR

pulldown:load ratio, percent of myc-Gα12^QL [1]: ~86% | pulldown:load ratio, percent of myc-Gα12^QL [2]: ~18%
B1: myc-Gα12^QL Glu^31/33Arg (natural protein, UniProt P27600 1-379, looked up)
chain: MSGVVRTLSRCLLPAEAGARERRAGAARDARRRARRRSRDIDALLARERRAVRRLVKILLLGAGESGKSTFLKQMRIIHGREFDQKALLEFRDTIFDNILKGSRVLVDARDKLGIPWQHSENEKHGMFLMAFENKAGLPVEPATFQLYVPALSALWRDSGIREAFSRRSEFQLGESVKYFLDNLDRIGQLNYFPSKQDILLARKATKGIVEHDFVIKKIPFKMVDVGGLRSQRQKWFQCFDGITSILFMVSSSEYDQVLMEDRRTNRLVESMNIFETIVNNKLFFNVSIILFLNKMDLLVEKVKSVSIKKHFPDFKGDPHRLEDVQRYLVQCFDRKRRNRSKPLFHHFTTAIDTENIRFVFHAVKDTILQENLKDIMLQ
notes: Gα12 with Q229L and Glu31 and Glu33 changed to Arg; also called double charge substitution mutant; source: HEK293, transfected, in detergent-soluble extract
